This is an account of results in publication PMC7356819, “Lanthanide-Dependent Methanol and Formaldehyde Oxidation in Methylobacterium aquaticum Strain 22A” (Microorganisms, 2020).

The target of data set [1] is T1, Hgd (S-hydroxymethyl glutathione dehydrogenase) (Methylobacterium aquaticum, UniProt A0A0C6FVV4).
T1 construct: gene adhC; native enzyme in cell-free extract of strain 22A; activity absent in the hgd deletion mutant
Description: NADH formation at […] nm in cell-free extract, hgd deletion mutant as control. In kind it is biochemical. As to conditions: S-hydroxymethylglutathione formed in situ from formaldehyde and glutathione; NAD, sodium phosphate pH 7, premix at 25 °C.

Substrate in data set [2]: C=O
Description: purified protein. In kind it is biochemical, Methylobacterium aquaticum. As to conditions: PMS and DCPIP as electron acceptors, ammonium chloride, La3+-loaded enzyme (0.58 La per monomer), Tris-HCl pH 9.0, 30 °C, formaldehyde prepared from autoclaved paraformaldehyde.

Substrate in data set [3]: CO
Nature of the data set: purified protein. In kind it is biochemical, Methylobacterium aquaticum. As to conditions: PMS and DCPIP as electron acceptors, ammonium chloride, La3+-loaded enzyme (0.58 La per monomer), Tris-HCl pH 9.0, 30 °C.

T1 sequence (A0A0C6FVV4 entry or part of it): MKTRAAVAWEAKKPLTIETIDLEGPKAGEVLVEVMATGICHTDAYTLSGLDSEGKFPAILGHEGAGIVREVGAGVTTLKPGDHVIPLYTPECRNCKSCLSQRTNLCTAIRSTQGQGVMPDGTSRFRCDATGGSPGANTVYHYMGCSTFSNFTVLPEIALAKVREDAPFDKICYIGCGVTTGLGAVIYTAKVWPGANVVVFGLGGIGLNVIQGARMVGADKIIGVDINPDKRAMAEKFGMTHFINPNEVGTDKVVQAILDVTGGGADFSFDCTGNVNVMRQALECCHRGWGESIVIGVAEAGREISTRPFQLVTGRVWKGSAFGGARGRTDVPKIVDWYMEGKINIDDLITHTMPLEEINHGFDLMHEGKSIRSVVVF

On to `N[C@@H](CCC(=O)N[C@@H](CSCO)C(=O)NCC(=O)O)C(=O)O` [S-hydroxymethyl glutathione], for which the “NADH formation at 340 nm in cell-free extract, hgd deletion mutant as control” value in data set [1] is recorded as “hgd indeed encodes S-hydroxymethylglutathione dehydrogenase”.

B1: XoxF1-His (XoxF1, Ln3+-dependent methanol dehydrogenase) (Methylobacterium aquaticum) (protein)
chain: NEDVLKRTANPAEQVLQTVDYANTRYSKLDQINAGNVNKLQVAWTFSTGVLRGHEGSPLVVGDVMYVHTPFPNIVYALDLNQDGKILWKYEPKQDPNVIPVMCCDTVNRGLAYADGAIFLHQADTTIVSLDAKSGKVNWSVQNGDPKIGETNTATVLPVKDKLIVGIAGAEYGIRGHITAYDLKTGKQAWRAYNLGPDAEMKIDPEKTTELGKPVGKDSSIKTWEGDQWKTGGASTWGWYSYDPKLNLVYYGTGNPSTWNPKQRPGDNKWSMTIFARDADTGVAKWVYQMTPHDEWDYDGINEMILTDQKIGDKERPLLTHFDRNGFGYTLDRATGELLVAEKYDPAVNWATKVDQDKSSKTYGRPLVVAKYSTDQNGEDTNSKGICPAALGSKDQQPAAYSPKTNLFYVPTNHVCMDYEPFRVSYTPGQPYVGATLSMYPAPNSHGGMGNFIAWDGTAGKIKWSNPEQFSVWSGALATAGDVVFYGTLEGYLKAVDSKTGKELYKFKTPSGIIGNVMTFQHKGKQNIAVLSGVGGWAGIGLAAGLTDPNAGLGAVGGYAALSSYTNLGGQLTVFNLPN
notes: His-tagged (primer-encoded at 3' end, C-terminal), tag kept; Ni-NTA; ca. 60 kDa monomer
Usually Km stands for the substrate concentration at which the rate is half of its maximum. Take B1: the Km in the data set “purified protein [2]” stood at 340 µM; in the data set “purified protein [3]” it was 30 µM.
